According to article PMC6917738, “Cooperative ordering of treadmilling filaments in cytoskeletal networks of FtsZ and its crosslinker ZapA” (Nature Communications, 2019):
Where two headings read alike, the source gives them in different places. Each block holds one molecule with its values, some of them ahead of it.

Legend:
[1] = biological target: FtsZ (UniProt P0A9A6); assay: FRAP; membrane-bound filament network at steady state (15 min), small area bleached; half-time from fit to I(t) = a(1 - exp(-bt))
[2] = biological target: FtsZ (UniProt P0A9A6); assay: single-molecule tracking by TIRF microscopy; small amounts of Cy5-labelled FtsZ (<2 nM) in 1.5 uM Alexa488-FtsZ, or of ZapA-Cy5 in unlabeled ZapA with 1.5 uM Alexa488-FtsZ, on supported bilayers; lifetime from a mono-exponential fit, corrected for photobleaching
[3] = biological target: FtsZ (UniProt P0A9A6); assay: as above; remark: listed apart in the source
[4] = biological target: T1, FtsZ (UniProt P0A9A6 1-383, Cy5 or Alexa488 label on part of the protein (30% labelled in the self-organization assay; <2 nM Cy5-labelled FtsZ in 1.5 uM Alexa488-labelled FtsZ for single molecules); labelled site not stated); assay: cell-based or functional assay
T1 sequence (looked up): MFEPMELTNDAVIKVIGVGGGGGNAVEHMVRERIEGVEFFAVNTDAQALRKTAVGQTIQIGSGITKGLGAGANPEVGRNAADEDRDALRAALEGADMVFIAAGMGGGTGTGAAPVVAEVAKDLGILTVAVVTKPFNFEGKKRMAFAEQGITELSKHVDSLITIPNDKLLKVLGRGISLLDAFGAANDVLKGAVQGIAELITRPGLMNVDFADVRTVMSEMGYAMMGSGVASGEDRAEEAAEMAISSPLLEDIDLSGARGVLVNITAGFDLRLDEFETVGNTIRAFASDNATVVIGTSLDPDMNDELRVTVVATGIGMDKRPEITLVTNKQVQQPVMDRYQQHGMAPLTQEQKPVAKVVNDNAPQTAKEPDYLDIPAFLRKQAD

[5] = biological target: the molecule itself; assay: SEC; size-exclusion chromatography of ZapA wild type and mutants; conditions not shown

Molecule: ZapA-Cy5 (from UniProt P0ADS2 1-109) (natural protein)
FRAP half-time of recovery [1]: 3.01 s | single-molecule lifetime [2]: 0.94 s | single-molecule lifetime [3]: 0.95

EC50 of ZapA for the correlation length of the FtsZ filament network at steady state (ρss) [4]: 1050 nM | EC50 of ZapA for the mean curvature of the FtsZ filament network at steady state (kss) [4]: 840 nM
B1: ZapA wild type (natural protein, UniProt P0ADS2 1-109, looked up)
chain: MSAQPVDIQIFGRSLRVNCPPDQRDALNQAADDLNQRLQDLKERTRVTNTEQLVFIAALNISYELAQEKAKTRDYAASMEQRIRMLQQTIEQALLEQGRITEKTNQNFE
notes: ZapA, FtsZ-associated protein; also called ZapA WT; source: purified protein; protocols in the Supplementary Information
stoichiometry N [5]: 4
